One may read the Kd as the equilibrium constant for the complex coming apart. In general, koff refers to the first-order rate constant of dissociation. What is called kon is the rate constant with which the complex forms. The term Ki denotes a measure of affinity in units of concentration, obtained from inhibition or displacement.

In one assay the target is T1, pig serum albumin (pig, UniProt P08835 25-607).
T1 construct: bought protein, amine-coupled to a CM5 chip; also called Pig SA
The assay is described as follows: SPR (Biacore 8K), albumin immobilised, 25 C, 1:1 kinetics. On the procedure: (§1) Immobilization of serum albumin to a Series S Sensor Chip CM5 surface is performed according to the manufacturer's instructions (Amine Coupling Kit BR-1000-50). Briefly, carboxyl groups on the sensor chip surfaces (flow cell 1 and 2) are activated by injecting 70 μL of a mixture containing 75 mg/ml EDC and 11.5 mg/ml NHS at 10 μL/min. Human, cynomolgus monkey, mouse, rat, pig, dog, cow and rabbit serum albumin are diluted in 10 mM NaOAc pH 4.0 (BR-1003-49) at 1, 1, 3, 1, 1, 1, 1 and 1 μg/mL and then injected over the activated chip surfaces (flow cell 2, […]) at 10 μL/min for 90 sec (human, mouse, rat, pig and cow serum albumin are obtained from Sigma Aldrich (St. Louis, Mo.); cynomolgus monkey serum albumin is obtained from Holzel Diagnostika (Cologne, Germany); dog serum albumin is obtained from Molecular Innovations (Novi, Mich.); and rabbit serum albumin is obtained from Fitzgerald Industries International (Acton, Mass.)). […] Excess reactive groups on the surfaces (flow cell 1 and 2) are deactivated by injecting 70 μL of 1 M ETA HCl—NaOH pH 8.5 at 10 μL/min.
(§2) 150 μL of sample is individually injecting sequentially across the immobilized serum albumins surface and then dissociates for 600 sec at 50 μL/min flow rate at 25° C. The surface is regenerated by injecting 10 mM glycine-HCl pH 1.5 (BR-1003-54) at 50 μL/min for 100 sec. The resulting sensorgrams are analyzed using Biacore 8K Insight Evaluation Software (version 2.0.15.12933) 1:1 binding kinetics or steady-state affinity model fitting to calculate the binding kinetic parameter association rate (ka), dissociation rate (kd), and equilibrium dissociation constant (KD)
For orientation: Surface plasmon resonance follows binding to a sensor surface in real time, without labels.

Assay [1] has as its target T2, cynomolgus monkey serum albumin (cynomolgus monkey, UniProt A2V9Z4 25-608).
T2 construct: bought protein, amine-coupled to a CM5 chip; also called Cyno SA
The assay is described as above. On the procedure:
as §1, §2

A further assay has as its target T3, rat serum albumin (rat, UniProt P02770 25-608).
T3 construct: bought protein, amine-coupled to a CM5 chip; also called Rat SA; RSA
The assay is described as above. On the procedure:
as §1, §2

For another assay, the target named is T4, dog serum albumin (dog, UniProt P49822 25-608).
T4 construct: bought protein, amine-coupled to a CM5 chip; also called Dog SA
The description is as above. On the procedure: as §1, §2

In another assay the target is T5, human serum albumin (human, UniProt P02768 25-609).
T5 construct: bought protein, amine-coupled to a CM5 chip; also called Human SA; HSA
The assay is described as above. How it is done: as §1, §2

Another assay has as its target T6, mouse serum albumin (mouse, UniProt P07724 25-608).
T6 construct: bought protein, amine-coupled to a CM5 chip; also called Mouse SA
Described as above. How it is done: as §1, §2

The target in a further assay is T7, cow serum albumin (cow, UniProt P02769 25-607).
T7 construct: bought protein, amine-coupled to a CM5 chip; also called Cow SA; Bovine SA
The assay is described as follows: SPR (Biacore 8K), albumin immobilised, 25 C, steady-state affinity. On the procedure:
as §1, §2

In the next assay the target is T8, rabbit serum albumin (rabbit, UniProt P49065 25-608).
T8 construct: bought protein, amine-coupled to a CM5 chip; also called Rabbit SA
The assay is described as follows: SPR (Biacore 8K), albumin immobilised, 25 C. On the procedure:
as §1, §2

Assay [2] deals with T9, human insulin receptor isoform A with C-terminal C9 tag (human, UniProt P06213 28-1382).
T9 construct: membranes of stably transfected HEK293 cells; also called hIR-A; human IR-A
The assay is described as follows: 125I-insulin competition SPA, hIR-A membranes, 0.1% BSA. How it is done: (§3) The assays are performed with a SPA method using polyvinyltoluene (PVT) wheat germ agglutinin-coupled SPA beads (Perkin Elmer). Assay buffer contains 50 mM Tris-HCl, pH 7.5, 150 mM NaCl and either A) 0.1% w/v fatty-acid free BSA; B) 0.1% w/v fatty-acid free human serum albumin (HSA); C) 0.1% w/v rat serum albumin (RSA); or D) 0.001% Nonidet P-40 Substitute (NP-40, Roche Diagnostics). Ten-point concentration response curves using three-fold serial dilutions of test samples or controls are prepared in Assay Buffer using a Freedom/Evo robot (Tecan).
(§4) Percent specific inhibition (y-axis) is plotted versus the log concentration of compound (x-axis). […] Reported Ki values are shown as the geometric mean with the standard error (Delta Method Standard Error) and the number of independent replicate determinations used to calculate the geometric mean indicated by n.

The target of assay [3] is T9, human insulin receptor isoform A with …. Briefly: 125I-insulin competition SPA, hIR-A membranes, 0.001% NP-40. How it is done: as §3, §4
For assay [4] the target is unchanged. Briefly: 125I-insulin competition SPA, hIR-A membranes, 0.1% HSA. How it is done: as §3, §4
Assay [5] has as its target T10, human insulin receptor isoform B with C-terminal C9 tag (human, UniProt P06213 28-1382).
T10 construct: membranes of stably transfected HEK293 cells; also called hIR-B; human IR-B
Briefly: 125I-insulin competition SPA, hIR-B membranes, 0.1% BSA. On the procedure: as §3, §4

Assay [6] concerns the target T10, human insulin receptor isoform B with …. The assay is described as follows: 125I-insulin competition SPA, hIR-B membranes, 0.001% NP-40. On the procedure:
as §3, §4

Assay [7] shares this target. Briefly: 125I-insulin competition SPA, hIR-B membranes, 0.1% HSA. How it is done: as §3, §4

B1: INS Analog 23 (other)
chain: FVSQHLCGSHLVEALHLVCGERGFHYTPKTGGGGGGGIVEQCCHSICSLEQLENYCGGGGGQGGGGQGGGGQGGGGQGGGGQEVQLLESGGGLVQPGGSLRLSCAASGRYIDETAVAWFRQAPGKEREFVAGIGGGVDITYYADSVKGRFTISRDNSKNTLYLQMNSLRPEDTAVYYCAARPGRPLITSKVADLYPYWGQGTLVTVSSPP
notes: single-chain insulin B-L2-A-L1-VHH fusion; also called Ex. 23
On to B1, for which the Kd in the assay with pig serum albumin worked out at 130 nM; in [1] it was 6.8 nM; in the assay with rat serum albumin, 53 nM; with dog serum albumin, 23 nM; with human serum albumin it was 0.73 nM; with mouse serum albumin it was 76 nM. In the assay with cow serum albumin, this molecule came in with a Kd of 590 nM. For the same molecule, the koff stood at 0.012 s⁻¹ with pig serum albumin; 0.00084 s⁻¹ in [1]; 0.0065 s⁻¹ with rat serum albumin; 0.0033 s⁻¹ with dog serum albumin; 9e-05 s⁻¹ with human serum albumin; 0.0093 s⁻¹ in the assay with mouse serum albumin. The kon with pig serum albumin was found to be 95000 M⁻¹ s⁻¹; in assay [1], 120000 M⁻¹ s⁻¹; with rat serum albumin, 120000 M⁻¹ s⁻¹; with dog serum albumin it was 140000 M⁻¹ s⁻¹; in the assay with human serum albumin it was 120000 M⁻¹ s⁻¹; with mouse serum albumin, 120000 M⁻¹ s⁻¹. In the assay with rabbit serum albumin, the binding result is recorded as “no binding (tested: up to 1000 nM)”. Also, the figures for the Ki in assay [2] and in assay [3] were 55.1 nM and 18.9 nM, respectively.

B2: INS Analog 27 (other)
chain: FVSQHLCGSHLVEALRLVCGERGFFYTPKTGGGGGGGIVEQCCHSICSLYQLENYCGGGGGQGGGGQGGGGQGGGGQGGGGQEVQLLESGGGLVQPGGSLRLSCAASGRYIDETAVAWFRQAPGKEREFVAGIGGGVDITYYADSVKGRFTISRDNSKNTLYLQMNSLRPEDTAVYYCAARPGRPLITSKVADLYPYWGQGTLVTVSSPP
notes: single-chain insulin B-L2-A-L1-VHH fusion; also called Ex. 27
Take B2: the Kd with pig serum albumin stood at 90 nM; in assay [1], 4.7 nM; with rat serum albumin it was 32 nM; in the assay with dog serum albumin, 17 nM; in the assay with human serum albumin, 0.75 nM; with mouse serum albumin, 45 nM. The molecule further showed a Kd with cow serum albumin of 390 nM. Also, the koff in the assay with pig serum albumin turned out to be 0.01 s⁻¹; in assay [1], 0.00078 s⁻¹; with rat serum albumin, 0.0061 s⁻¹; with dog serum albumin it was 0.003 s⁻¹; with human serum albumin it was 0.00013 s⁻¹; with mouse serum albumin, 0.0079 s⁻¹. Moreover, the kon worked out at 120000 M⁻¹ s⁻¹ with pig serum albumin; 170000 M⁻¹ s⁻¹ in assay [1]; 190000 M⁻¹ s⁻¹ with rat serum albumin; 180000 M⁻¹ s⁻¹ with dog serum albumin; 170000 M⁻¹ s⁻¹ in the assay with human serum albumin; 170000 M⁻¹ s⁻¹ with mouse serum albumin. Also, the binding result in the assay with rabbit serum albumin is reported as “no binding (tested: up to 1000 nM)”. In addition, the results for the Ki in assay [2] and in assay [3] were 103 nM and 50.5 nM, respectively.

B3: INS Analog 24 (other)
chain: FVSQHLCGSHLVEALHLVCGERGFHYTPKTGGGGGGGIVEQCCHSICSLEQLENYCGPGPQPGPQPGPQPGPQPGPQPGPQPGPQPGPQEVQLLESGGGLVQPGGSLRLSCAASGRYIDETAVAWFRQAPGKEREFVAGIGGGVDITYYADSVKGRFTISRDNSKNTLYLQMNSLRPEDTAVYYCAARPGRPLITSKVADLYPYWGQGTLVTVSSPP
notes: single-chain insulin B-L2-A-L1-VHH fusion; also called Ex. 24
For the molecule B3, the Kd with pig serum albumin turned out to be 100 nM; in assay [1], 5.5 nM; with rat serum albumin it was 40 nM; with dog serum albumin it was 16 nM; with human serum albumin, 0.91 nM; with mouse serum albumin it was 49 nM. In the assay with cow serum albumin, the dissociation constant (Kd) was 430 nM. The koff with pig serum albumin is 0.011 s⁻¹; in assay [1], 0.00075 s⁻¹; with rat serum albumin it was 0.0057 s⁻¹; in the assay with dog serum albumin, 0.0024 s⁻¹; with human serum albumin, 0.00012 s⁻¹; with mouse serum albumin, 0.0073 s⁻¹. Also, the kon was 100000 M⁻¹ s⁻¹ with pig serum albumin; 130000 M⁻¹ s⁻¹ in [1]; 140000 M⁻¹ s⁻¹ in the assay with rat serum albumin; 150000 M⁻¹ s⁻¹ with dog serum albumin; 140000 M⁻¹ s⁻¹ in the assay with human serum albumin; 150000 M⁻¹ s⁻¹ in the assay with mouse serum albumin. Besides, in the assay with rabbit serum albumin, the binding result was “no binding (tested: up to 1000 nM)”. The Ki stood at 56.8 nM in [2] and 21.8 nM in assay [3].

B4: INS Analog 18 (other)
chain: FVSQHLCGSHLVEALRLVCGERGFHYTPKTGGGGGGGIVEQCCHSICSLYQLENYCGPGPAPGPAPGPAPGPAPGPAPGPAPGPAPGPAEVQLLESGGGLVQPGGSLRLSCAASGRYIDETAVAWFRQAPGKEREFVAGIGGGVDITYYADSVKGRFTISRDNSKNTLYLQMNSLRPEDTAVYYCAARPGRPLITSKVADLYPYWGQGTLVTVSSPP
notes: single-chain insulin B-L2-A-L1-VHH fusion; L1 is (PGPA)8; also called Ex. 18
Regarding B4, the Ki in [4] is 518 nM; in [5] it was 299 nM; in assay [6] it was 134 nM; in assay [2], 204 nM; in assay [3] it was 89.5 nM; in assay [7] it was 239 nM.

B5: INS Analog 14 (other)
chain: FVSQHLCGSHLVEALRLVCGERGFFYTPKTGGGGGGGIVEQCCTSICSLYQLENYCGPGPAPGPAPGPAPGPAPGPAPGPAPGPAPGPAEVQLLESGGGLVQPGGSLRLSCAASGRYIDETAVAWFRQAPGKEREFVAGIGGGVDITYYADSVKGRFTISRDNSKNTLYLQMNSLRPEDTAVYYCAARPGRPLITSKVADLYPYWGQGTLVTVSSPP
notes: single-chain insulin B-L2-A-L1-VHH fusion; also called Ex. 14
Regarding B5, the Ki was 124 nM in assay [4]; 378 nM in assay [5]; 234 nM in assay [6]; 282 nM in [2]; 163 nM in [3]; 447 nM in assay [7].

B6: INS Analog 13 (other)
chain: FVSQHLCGSHLVEALHLVCGERGFHYTPKTGGGGGGGIVEQCCHSICSLEQLENYCGPGPAPGPAPGPAPGPAPGPAPGPAPGPAPGPAEVQLLESGGGLVQPGGSLRLSCAASGRYIDETAVAWFRQAPGKEREFVAGIGGGVDITYYADSVKGRFTISRDNSKNTLYLQMNSLRPEDTAVYYCAARPGRPLITSKVADLYPYWGQGTLVTVSSPP
notes: single-chain insulin B-L2-A-L1-VHH fusion; also called Ex. 13
Regarding B6, the Ki worked out at 34.6 nM in assay [4]; 131 nM in [5]; 39.2 nM in assay [6]; 60.3 nM in assay [2]; 23.1 nM in [3]; 89 nM in assay [7].

B7: INS Analog 12 (other)
chain: FVSQHLCGSHLVEALHLVCGERGFHYTPKTGGGGGGGIVEQCCHSICSLYQLENYCGPGPAPGPAPGPAPGPAPGPAPGPAPGPAPGPAEVQLLESGGGLVQPGGSLRLSCAASGRYIDETAVAWFRQAPGKEREFVAGIGGGVDITYYADSVKGRFTISRDNSKNTLYLQMNSLRPEDTAVYYCAARPGRPLITSKVADLYPYWGQGTLVTVSSPP
notes: single-chain insulin B-L2-A-L1-VHH fusion; also called Ex. 12
B7: the Ki in assay [4] stood at 42.3 nM; in assay [5] it was 113 nM; in assay [6], 42.8 nM; in [2], 37.9 nM; in assay [3], 25 nM; in [7], 62.1 nM.

For the origin of these results see US20220378931A1 (Eli Lilly, published 2022).
